According to PMC3213134, “A Non-Motor Microtubule Binding Site Is Essential for the High Processivity and Mitotic Function of Kinesin-8 Kif18A” (PLoS ONE, 2011):

Target: the molecule itself
Experiment: photobleaching step counting (TIRF microscopy, streaming mode); single GFP-tagged motors moving on immobilised microtubules, ATP reduced to 15 µM, 100 ms exposure for 1200 frames; only one and two step bleaching events seen

Protein	stoichiometry N
His-Kif18A^1-777-GFP (domain or fragment, human, UniProt Q8NI77 1-777, looked up, not shown: His6, N-terminal, kept; GFP, C-terminal, kept) MSVTEEDLCHHMKVVVRVRPENTKEKAAGFHKVVHVVDKHILVFDPKQEEVSFFHGKKTTNQNVIKKQNKDLKFVFDAVFDETSTQSEVFEHTTKPILRSFLNGYNCTVLAYGATGAGKTHTMLGSADEPGVMYLTMLHLYKCMDEIKEEKICSTAVSYLEVYNEQIRDLLVNSGPLAVREDTQKGVVVHGLTLHQPKSSEEILHLLDNGNKNRTQHPTDMNATSSRSHAVFQIYLRQQDKTASINQNVRIAKMSLIDLAGSERASTSGAKGTRFVEGTNINRSLLALGNVINALADSKRKNQHIPYRNSKLTRLLKDSLGGNCQTIMIAAVSPSSVFYDDTYNTLKYANRAKDIKSSLKSNVLNVNNHITQYVKICNEQKAEILLLKEKLKAYEEQKAFTNENDQAKLMISNPQEKEIERFQEILNCLFQNREEIRQEYLKLEMLLKENELKSFYQQQCHKQIEMMCSEDKVEKATGKRDHRLAMLKTRRSYLEKRREEELKQFDENTNWLHRVEKEMGLLSQNGHIPKELKKDLHCHHLHLQNKDLKAQIRHMMDLACLQEQQHRQTEAVLNALLPTLRKQYCTLKEAGLSNAAFESDFKEIEHLVERKKVVVWADQTAEQPKQNDLPGISVLMTFPQLGPVQPIPCCSSSGGTNLVKIPTEKRTRRKLMPSPLKGQHTLKSPPSQSVQLNDSLSKELQPIVYTPEDCRKAFQNPSTVTLMKPSSFTTSFQAISSNINSDNCLKMLCEVAIPHNRRKECGQEDLDSTFTICEDIK	2
His-Kif18A^FL-GFP (natural protein, human, UniProt Q8NI77 1-898, looked up, also called full-length Kif18A^FL-GFP; not shown: His6, N-terminal, kept; GFP, C-terminal, kept) MSVTEEDLCHHMKVVVRVRPENTKEKAAGFHKVVHVVDKHILVFDPKQEEVSFFHGKKTTNQNVIKKQNKDLKFVFDAVFDETSTQSEVFEHTTKPILRSFLNGYNCTVLAYGATGAGKTHTMLGSADEPGVMYLTMLHLYKCMDEIKEEKICSTAVSYLEVYNEQIRDLLVNSGPLAVREDTQKGVVVHGLTLHQPKSSEEILHLLDNGNKNRTQHPTDMNATSSRSHAVFQIYLRQQDKTASINQNVRIAKMSLIDLAGSERASTSGAKGTRFVEGTNINRSLLALGNVINALADSKRKNQHIPYRNSKLTRLLKDSLGGNCQTIMIAAVSPSSVFYDDTYNTLKYANRAKDIKSSLKSNVLNVNNHITQYVKICNEQKAEILLLKEKLKAYEEQKAFTNENDQAKLMISNPQEKEIERFQEILNCLFQNREEIRQEYLKLEMLLKENELKSFYQQQCHKQIEMMCSEDKVEKATGKRDHRLAMLKTRRSYLEKRREEELKQFDENTNWLHRVEKEMGLLSQNGHIPKELKKDLHCHHLHLQNKDLKAQIRHMMDLACLQEQQHRQTEAVLNALLPTLRKQYCTLKEAGLSNAAFESDFKEIEHLVERKKVVVWADQTAEQPKQNDLPGISVLMTFPQLGPVQPIPCCSSSGGTNLVKIPTEKRTRRKLMPSPLKGQHTLKSPPSQSVQLNDSLSKELQPIVYTPEDCRKAFQNPSTVTLMKPSSFTTSFQAISSNINSDNCLKMLCEVAIPHNRRKECGQEDLDSTFTICEDIKSSKCKLPEQESLPNDNKDILQRLDPSSFSTKHSMPVPSMVPSYMAMTTAAKRKRKLTSSTSNSSLTADVNSGFAKRVRQDNSSEKHLQENKPTMEHKRNICKINPSMVRKFGRNISKGNLR	2
